Reference: IntAct's records for PubMed 24591568

B1: Rab11 family-interacting protein 5 (Homo sapiens), Q9BXF6 (parent)
chain: MALVRGAEPAAGPSRWLPTHVQVTVLRARGLRGKSSGAGSTSDAYTVIQVGREKYSTSVVEKTHGCPEWREECSFELPPGALDGLLRAQEADAGPAPWAASSAAACELVLTTMHRSLIGVDKFLGQATVALDEVFGAGRAQHTQWYKLHSKPGKKEKERGEIEVTIQFTRNNLSASMFDLSMKDKPRSPFSKIRDKMKGKKKYDLESASAILPSSAIEDPDLGSLGKMGKAKGFFLRNKLRKSSLTQSNTSLGSDSTLSSASGSLAYQGPGAELLTRSPSRSSWLSTEGGRDSAQSPKLFTHKRTYSDEANQMRVAPPRALLDLQGHLDAASRSSLCVNGSHIYNEEPQGPVRHRSSISGSLPSSGSLQAVSSRFSEEGPRSTDDTWPRGSRSNSSSEAVLGQEELSAQAKVLAPGASHPGEEEGARLPEGKPVQVATPIVASSEAVAEKEGARKEERKPRMGLFHHHHQGLSRSELGRRSSLGEKGGPILGASPHHSSSGEEKAKSSWFGLREAKDPTQKPSPHPVKPLSAAPVEGSPDRKQSRSSLSIALSSGLEKLKTVTSGSIQPVTQAPQAGQMVDTKRLKDSAVLDQSAKYYHLTHDELISLLLQRERELSQRDEHVQELESYIDRLLVRIMETSPTLLQIPPGPPK
B2: Rab11 family-interacting protein 5 (Homo sapiens), Q9BXF6 (parent)
chain: B1 chain
partner: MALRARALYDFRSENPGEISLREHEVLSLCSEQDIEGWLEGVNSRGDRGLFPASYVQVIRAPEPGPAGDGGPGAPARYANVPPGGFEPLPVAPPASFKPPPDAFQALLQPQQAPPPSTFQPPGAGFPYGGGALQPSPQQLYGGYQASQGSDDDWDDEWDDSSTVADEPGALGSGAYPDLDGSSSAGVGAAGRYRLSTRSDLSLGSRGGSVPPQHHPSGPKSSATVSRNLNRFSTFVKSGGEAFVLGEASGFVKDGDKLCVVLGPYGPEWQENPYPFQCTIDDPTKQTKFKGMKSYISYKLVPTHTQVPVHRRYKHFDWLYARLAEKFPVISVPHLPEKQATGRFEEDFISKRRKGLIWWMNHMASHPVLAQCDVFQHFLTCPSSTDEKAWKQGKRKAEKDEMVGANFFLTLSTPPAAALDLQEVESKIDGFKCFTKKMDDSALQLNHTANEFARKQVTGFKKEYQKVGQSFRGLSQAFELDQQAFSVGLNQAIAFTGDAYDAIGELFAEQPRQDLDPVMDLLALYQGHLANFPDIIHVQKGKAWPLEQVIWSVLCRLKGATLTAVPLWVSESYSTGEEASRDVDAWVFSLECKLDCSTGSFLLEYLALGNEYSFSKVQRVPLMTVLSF

Variants of: B1
Conditions: with kif3a_human KIF3A

effect of a mutation on the interaction	Variant
increasing interaction	T276D

Variants of: B1
Conditions: with kif3a_human KIF3A
Remark: another data set of the same source

effect of a mutation on the interaction	Variant
increasing interaction	T276A

Variants of: B2
Conditions: with snx18_human SNX18, Q96RF0

effect of a mutation on the interaction	Variant
decreasing interaction	T276D

Variants of: B2
Conditions: with snx18_human SNX18, Q96RF0
Remark: another data set of the same source

effect of a mutation on the interaction	Variant
increasing interaction	T276A
